Data taken from article PMC6161111, “Design, Synthesis, In Vitro, and Initial In Vivo Evaluation of Heterobivalent Peptidic Ligands Targeting Both NPY(Y1)- and GRP-Receptors—An Improvement for Breast Cancer Imaging?” (Pharmaceuticals, 2018).
Where two headings read alike, the source gives them in different places.

Tests used:
[1] = Ex vivo biodistribution in T-47D tumor-bearing mice; conditions: female, Fox Chase SCID (CB17/Icr-Prkdc^scid/IcrIcoCrl), mouse, in vivo, iv, total radioactivity, ex vivo biodistribution at 130 min p.i.
Protocol: (§1) In vivo experiments. All animal experiments were performed in compliance with the German animal protection laws and protocols of the local committee (Regierungspräsidium Karlsruhe, approval number: 35-9185.81/G-206/15). 20, six week old female immunodeficient Fox Chase SCID (CB17/Icr-Prkdc^scid/IcrIcoCrl) mice with an average weight of 20 g were subcutaneously implanted with 17β-estradiol pellets (0.36 mg/60 days). 4 days later, the tumors were induced by subcutaneous inoculation of 5 × 10^6 T-47D cells into the left flank of the […]. After induction, the tumors were allowed to grow for 8–10 weeks and reached a diameter of about 0.5 cm. For imaging, the animals were anaesthetized with isoflurane and injected with 5.5–8.0 MBq of the respective radioligand ([^68Ga]24, [^68Ga]24a or [^68Ga]24b) into the lateral tail vein. Dynamic PET images were acquired over 90 min and CT images were obtained within further 30 min. After the end of the diagnostic scan, the animals were sacrificed, the organs were collected and measured in a gamma-counter.

[2] = test system: T-47D tumor-bearing mice; experiment: as above; conditions: 130 min p.i.
Protocol: as §1

[3] = Stability of the 68Ga-labeled ligands in human serum; format: in vitro ADME; conditions: after 90 min incubation at 37 °C, radio-HPLC
Protocol: Determination of the stability of the ligands in human serum. The heterobivalent ligands (22–26) as well as the monomeric reference compounds (27 and 28) were radiolabeled with ^68Ga as described before and 125 µL of the product solution were added to 500 µL of human serum and incubated at 37 °C. At defined time-points of 5, 15, 30, 60 and 90 min, aliquots of 75 µL of the mixture were added to 75 µL of ethanol and the precipitation of serum proteins was enhanced by ice-cooling for 2 min. After centrifugation, supernatant and precipitate were measured for radioactivity and the supernatant was analyzed by analytical radio-HPLC. These experiments were performed thrice.

[4] = Determination of radiotracer lipophilicity (logD, phosphate buffer/1-octanol); format: physicochemical; conditions: phosphate buffer (0.05 M, pH 7.4) / 1-octanol, six independent experiments
Protocol: Determination of radiotracer lipophilicity. The heterobivalent ligands (22–26) as well as the monomeric reference compounds (27 and 28) were radiolabeled with ^68Ga as described before and 2 µL of the product solution (~65 pmol of the respective radioligand) were added to a mixture of phosphate buffer (0.05 M, pH 7.4, 800 µL) and 1-octanol (800 µL) and incubated for 5 min at ambient temperature under vigorous shaking. Both phases were separated by centrifugation and 100 µL of each phase were measured for radioactivity in a gamma-counter. […] (cpm = counts per minute), cpmw = activity in the aqueous phase [cpm]. These experiments were performed six times independently.

[5] = test system: T-47D cells; experiment: In vitro cell uptake (internalization) study in T-47D cells; format: cell-based, human; conditions: after 4 h, % of total added activity
Protocol: Cell culture. All cell lines were grown in suitable culture medium at 37 °C in a humidified CO2 (5%) atmosphere. The human breast cancer cell lines T-47D, MDA-MB-231 and MCF-7 were grown in Dulbecco’s Modified Eagle Medium (DMEM), supplemented with 10% (v/v) fetal calf serum (FCS) and 1% (v/v) L-Glutamine. For a high expression of the NPY(Y1) receptor on T-47D cells, the medium for this cell line was further supplemented with 0.15% (w/v) β-estradiol. The BT-474 and PC-3 cell lines were grown in RPMI-1640 medium, also supplemented with 10% (v/v) fetal calf serum (FCS) and 1% (v/v) L-Glutamine.
Internalization studies. Cells (T-47D, MDA-MB-231, MCF-7, BT-474 and PC-3, 1.5 × 10^6 cells per well) were seeded into 6-well plates and incubated overnight at 37 °C in a humidified CO2 (5%) atmosphere. The next day, the medium was removed and the cells were washed twice with the respective medium without supplements (ice-cold, 1 mL) and incubated with 3.7–4.0 kBq (0.37–4.0 pmol) of the respective ^68Ga-radiolabeled ligand [^68Ga]22−[^68Ga]26, [^68Ga]27 or [^68Ga]28 (in 1.5 mL medium, containing 0.5% (w/v) BSA) for defined time-points of 1, 2, 3 or 4 h at 37 °C in a humidified CO2 (5%) atmosphere. A 1000-fold excess of the respective peptide (3 or 4) was used for blocking to determine the non-specific cell uptake. At each time point, the medium was removed and the cells were washed twice with the respective medium without supplements (ice-cold, 1 mL). Cells were treated twice with 1 mL glycine buffer (ice-cold, 50 mM glycine, 100 mM NaCl, pH 2.8) for 5 min at room temperature, followed by 2 mL NaOH solution (1 M) for 10 min at 37 °C. The supernatants were collected and the radioactivity measured in a gamma counter. The internalized and surface bound activity was expressed as percentage of measured to total added activity. Each data point was generated thrice in triplicates.

[6] = test system: T-47D tumor; experiment: Small animal PET/CT imaging in T-47D tumor-bearing mice; format: in vivo; conditions: PET imaging, i.v. 5.5-8.0 MBq, n = 4
Protocol: as §1, with “For imaging, the animals were anaesthetized with isoflurane and injected with 5.5–8.0 MBq of the respective radioligand ([^68Ga]24, [^68Ga]24a or [^68Ga]24b) into the lateral tail vein. Dynamic PET images were acquired over 90 min and CT images were obtained within further 30 min.” left out
The dynamic PET images were reconstructed using the Albira Suite Reconstructor (Bruker) with an iterative dynamic reconstruction with 12 iterations using an 2D-Maximum-Likelihood Expectation-Maximization (MLEM) algorithm and a cubic image voxel size of 0.5 mm after scatter and decay correction. […] The reconstructed PET data were manually fused with the CT images using PMOD 3.6.1.1. and analyzed. Volumes of interest (VOIs) were defined for the quantification of tracer accumulation in heart, liver, kidneys, tumor, and muscle. The results for each VOI were calculated as SUV (kBq/cm^3) averaged for each time frame.

Structure (SMILES): CCCC[C@H](NC(=O)[C@H](CCCNC(=N)N)NC(=O)[C@H](Cc1c[nH]c2ccccc12)NC(=O)[C@H](CCCCNC(=O)CON=Cc1ccc(C(=O)NCCOCCOCCOCCOCCC(=O)NCCCN(CCCNC(=O)CCOCCOCCOCCOCCNC(=O)c2ccc(C=NOCC(=O)NCCOCCOCCOCCOCCC(=O)N[C@@H](CCC(N)=O)C(=O)N[C@@H](Cc3c[nH]c4ccccc34)C(=O)N[C@@H](C)C(=O)N[C@H](C(=O)NCC(=O)N[C@@H](Cc3c[nH]cn3)C(=O)N[C@@H](CC(C)C)C(=O)N[C@@H](CCSC)C(N)=O)C(C)C)cc2)CC(=O)NCCOCCOCCOCCOCCC(=O)N[C@@H](CCCCNC(=O)CCC(C(=O)O)N2CCN(CC(=O)O)CCN(CC(=O)O)CC2)C(N)=O)cc1)NC(=O)[C@@H]1CCCN1C(=O)[C@H](CC(N)=O)NC(=O)[C@@H](N)[C@@H](C)CC)C(=O)N[C@@H](CCCNC(=N)N)C(=O)N[C@@H](Cc1ccc(O)cc1)C(N)=O (stereo partly drawn) [[^68Ga]24, metal not drawn]
- tissue to tissue ratio at 130 min ([1]; read-out: tumor-to-blood ratio (T / B)): 2.72 ± 0.43
- tissue to tissue ratio at 130 min ([1]; read-out: tumor-to-muscle ratio (T / M)): 11.8 ± 1.83
- adrenal glands uptake ([2]; adrenal glands): 3.57 ± 2.18 ID/g in %
- blood uptake ([2]; blood): 1.13 ± 0.77 ID/g in %
- bone uptake ([2]; bone): 0.26 ± 0.14 ID/g in %
- brain uptake ([2]; brain): 0.11 ± 0.14 ID/g in %
- heart uptake ([2]; heart): 0.52 ± 0.38 ID/g in %
- kidneys uptake ([2]; kidneys): 34.79 ± 11.03 ID/g in %
- large intestines uptake ([2]; large intestines): 1.80 ± 0.64 ID/g in %
- liver uptake ([2]; liver): 10.02 ± 1.54 ID/g in %
- lung uptake ([2]; lung): 0.62 ± 0.17 ID/g in %
- muscle uptake ([2]; muscle): 0.26 ± 0.18 ID/g in %
- pancreas uptake ([2]; pancreas): 10.54 ± 3.13 ID/g in %
- small intestines uptake ([2]; small intestines): 1.49 ± 0.36 ID/g in %
- spleen uptake ([2]; spleen): 1.32 ± 0.33 ID/g in %
- stomach uptake ([2]; stomach): 1.47 ± 0.44 ID/g in %
- tail uptake ([2]; tail): 1.30 ± 1.21 ID/g in %
- tumor uptake ([2]; tumor): 3.07 ± 0.33 ID/g in %
- degradation in human serum [3]: no observable fragmentation
- logD [4]: -1.67 ± 0.086
- specific cell uptake [5]: 50.1 ± 2.4%
- tumor activity concentration at 85 min [6]: 122.03 ± 16.27 kBq/cm^3

Structure (SMILES): CCCC[C@H](NC(=O)[C@H](CCCNC(=N)N)NC(=O)[C@H](Cc1c[nH]c2ccccc12)NC(=O)[C@H](CCCCNC(=O)CON=Cc1ccc(C(=O)NCCCN(CCCNC(=O)c2ccc(C=NOCC(=O)NCCOCCOCCOCCOCCC(=O)N[C@@H](CCC(N)=O)C(=O)N[C@@H](Cc3c[nH]c4ccccc34)C(=O)N[C@@H](C)C(=O)N[C@H](C(=O)NCC(=O)N[C@@H](Cc3c[nH]cn3)C(=O)N[C@@H](CC(C)C)C(=O)N[C@@H](CCSC)C(N)=O)C(C)C)cc2)CC(=O)NCCOCCOCCOCCOCCC(=O)N[C@@H](CCCCNC(=O)CCC(C(=O)O)N2CCN(CC(=O)O)CCN(CC(=O)O)CC2)C(N)=O)cc1)NC(=O)[C@@H]1CCCN1C(=O)[C@H](CC(N)=O)NC(=O)[C@@H](N)[C@@H](C)CC)C(=O)N[C@@H](CCCNC(=N)N)C(=O)N[C@@H](Cc1ccc(O)cc1)C(N)=O (stereo partly drawn) [[^68Ga]22, metal not drawn]
- logD [4]: -1.57 ± 0.111
- specific cell uptake [5]: 47.8 ± 6.5%
